# From patent US10975365B2, “Di-enzymatic chimeric endolysin” (Government of the United States of America, as represented …, priority 2018, dated 2021)
# Assays:
# [1] = tested on: eight serotypes of pneumococci; test: MIC test on pneumococcal strains; format: cell-based, Streptococcus pneumoniae
# Method: The MICs of enzymes and antibiotics were determined in a 96-well titration plate in triplicate. Briefly, the overnight pneumococcal culture was diluted with 2×THY to obtain a final concentration of 1×10^7 CFU/ml, and other bacterial species were diluted with 2-folded medium to 1×10^5 CFU/ml. 100 μl of the diluted bacterial culture was subjected into each well, mixing with the serial 2-fold diluted 100 μl of enzymes/antibiotics. PBS buffer was used as a negative control. The plates were sealed via parafilm and statically incubated at 37° C. incubator for 24 h. The MIC was defined as the lowest concentration of treatment that inhibited visible growth of the bacterium.
# To further evaluate the activity of ClyX-1, MIC tests were performed against eight serotypes of pneumococci including penicillin-resistant strains and capsule-free mutant with information shown in FIG. 13. Penicillin and levofloxacin were tested as standards to benchmark the antimicrobial activity. All of the strains were sensitive to levofloxacin (MIC<=2). Only the two penicillin-resistant strains indicated MIC larger than 2 μg/ml (resistance). […] The MICs of ClyX-1 were lower than that of Cpl-1 and even levofloxacin, ranging from 0.13 μg/ml to 0.5 μg/ml.
# [2] = tested on: S. pneumoniae ATCC TIGR 4; test: Bacteriolytic (turbidity reduction) assay; format: cell-based, Streptococcus pneumoniae; conditions: 5 μg/ml; OD from 1.0 to 0.2 within the first 2 min; overnight culture
# Method: In a bacteriolytic assay, bacterial culture (stationary phase) was harvested at 5,000 for 10 min at 4° C., washed twice and resuspended in PBS buffer, pH7.4. In a 96-well titration plate, the resuspended bacterial solution was mixed 1:1 (u/u) with endolysin to a final OD600 between 0.8 to 1.0. In each run, PBS was included as a negative control. Spectrophotometric readings (OD600) were taken every 15 s over 10 min on a spectrophotometer. Vmax was calculated as the slope of the linear portion and represented the endolysins activity. All experiments were conducted in triplicate to get the standard deviation.
# Bacteriolytic capacity of ClyX-1 and ClyX-1 linkers were analyzed via the turbidity reduction assay against the overnight culture of S. pneumoniae ATCC TIGR 4. Both enzymes-induced lysis of the bacterial peptidoglycan caused a decrease in OD from 1.0 to 0.2 (80%) within the first 2 min of the turbidity assay at 5 μg/ml as shown in FIG. 9a. The linkers were the only difference between these two enzymes, and the unstructured region of PlyCA GyH, PlyCA CHAP, and Cpl-1 CBD provide optimal flexibility for enzymatical activity. High lytic activity correlated with data for bacterial survival after chimera treatment. ClyX-1 sterilized cultures for 5 min, causing a decrease in TIGR 4 viability of ˜6 log, at as low as 0.5 μg/ml (FIG. 9b). […]
# [3] = tested on: S. pneumoniae D39; test: Bactericidal assay on D39, ClyX-1 compared with Cpl-1 and PlyCA; format: cell-based, Streptococcus pneumoniae
# Method: (§1) (a) Different concentrations of ClyX-1 and Cpl-1 were mixed with 10^6 overnight S. pneumoniae D39 culture for 5 min. The cells were then serial diluted and plated on the THY plates. Log killing was determined through the comparisons of PBS treatment and the enzymes treatment. (b) Female BALB/c mice were injected intraperitoneally with pneumococcus strain S. pneumoniae NS26 at a single dose at 2.95×10^7 colony forming units (CFU) per mouse. One hour after the infection, mice were intraperitoneally received a single dose of different treatments in different amount per mouse. The lines represent the percentage survival of mice for 10 days. The data was plotted as Kaplan-Meier survival curves and analyzed via the Log-rank (Mantel-Cox) test (*P<0.001; **P<0.0001);
# (§2) With regard to bactericidal assay, bacterial cells were diluted to 2× rich media to generate a final concentration of 5.0×10^6 CFU/ml. 100 μl of the diluted bacterial culture was added into a 96-well titration plate in triplicate and mixed with 100 μl of sterile-filtered enzymes. Plates were sealed and incubated at 37° C. for 5-60 min. After the incubation, bacterial cells were serially diluted in 10-fold increments into sterile PBS and plated on THY/TSB agar. Log killing was calculated as follows: −log[(CFU under enzyme treatment)/(CFU under PBS treatment)].
# Bactericidal assays were repeated using the three lysins at different concentrations (0.5 μg/ml to 50 μg/ml) on a different strain, D39 (FIG. 10a).
# [4] = tested on: S. pneumoniae NS26; test: Mouse systemic infection model, survival; format: in vivo, female BALB/c mice
# Method: as §1
# With regard to in vivo mouse infection models, mouse infection experiments were carried out in an ABSL-2 lab. In the mouse systemic infection model, female BALB/c mice (6-8 weeks old) were injected intraperitoneally with S. pneumoniae NS26 at a single dose of 2.95×10^7 CFU/mouse and divided randomly into multiple groups. Bacterial burden in blood and organs in mice 1 h post-infected were confirmed by plating on THY agar as described previously. One hour post-infection, these groups intraperitoneally received a single dose of 20, 40, or 80 μg/mouse of […] (n=10); 20, 40, or 80 μg/mouse of Cpl-1 (n=10); 100 μg/mouse of penicillin G (n=10); or an equal volume of PBS buffer (n=10). The survival data for all groups were recorded for 10 days.
# To validate the in vitro bactericidal activity of ClyX-1, we applied a mouse systemic infection model to test the in vivo efficacy of the enzyme. Mice were challenged to a 2-days lethal-dose of 2.95×10^7 CFU. One hour after infection, the mice were intraperitoneally injected a single dose containing different amount of either ClyX-1 or Cpl-1 ranging from 20 μg-80 μg. The antibiotics control was 100 μg/mouse of penicillin G, and the negative control was as PBS, pH7.4 buffer. The mice were then observed and recorded for the survival data. All the mice treated with PBS buffer died within the first 2 days.
# [5] = tested on: five strains of stationary phase S. pneumoniae; test: Bactericidal activity of ClyX-3 on pneumococcal strains; format: cell-based, Streptococcus pneumoniae; conditions: 5 μg/ml; 5 min
# Method: (a) Bactericidal effects of ClyX-3 against five strains of stationary phase S. pneumoniae. 5 μg/ml of enzymes were mixed with 10^6 bacterial cultures for 5 min. Log killing was determined through the comparisons of PBS treatment and enzymes treatment. (b) Bactericidal effects of ClyX-4 against stationary phase streptococci. 50 μg/ml of enzymes were mixed with 10^6 bacterial culture for 1 h. Log killing was determined through the comparisons of PBS treatment and enzymes treatment;
# as §2
# With regard to applying the design rationale to add a C′ terminal EAD such that two EADs are disposed at each side of the CBD, the process was used to engineer endolysins for increased activity. […]
molecule,measurement,setting,value
C[C@H]1COc2c(N3CCN(C)CC3)c(F)cc3c(=O)c(C(=O)O)cn1c23 [levofloxacin],MIC,"[1]; all strains, 24 h, unit not given",<= 2
Penicillin,MIC,[1]; the two penicillin-resistant strains,> 2 µg/mL
"ClyX-1 linkers: similar to ClyX-1 but with two extra native linkers in the PlyCA; Seq. ID No. 18 (protein, Bacteriophage, similar to ClyX-1 but with two extra native linkers in the PlyCA; ID No. 18) MSKKYTQQQYEKYLAQPANNTFGLSPQQVADWFMGQAGARPVINSYGVNASNLVSTYIPKMQEYGVSYTLFLMYTVFEGGGAGNWINHYMYDTGSNGLECLEHDLQYIHGVWETYFPPALSAPECYPATEDNAGALDRFYQSLPGRTWGDVMIPSTMAGNAWVWAYNYCVNNQGAAPLVYFGNPYDSQIDSLLAMGADPFTGGSITGDGKNPSVGTGNATVSASSECTMEEDDKPKTAGTWKQDSKGWWFRRNNGSFPYNKWEKIGGVWYYFDSKGYCLTSEWLKDNEKWYYLKDNGAMATGWVLVGSEWYYMDDSGAMVTGWVKYKNNWYYMTNERGNMVSNEFIKSGKGWYFMNTNGELADNPSFTKEPDGLITVALQQTNPNPDKPTVKSPGQNDLGSGSDRVAANLANAQAQVGKYIGDGQCYAWVGWWSARVCGYSISYSTGDPMLPLIGDGMNAHSIHLGWDWSIANTGIVNYPVGTVGRKEDLRVGAIWCATAFSGAPFYTGQYGHTGIIESWSDTTVTVLEQNILGSPVIRSTYDLNTFLSTLTGLITFK",decrease in OD in turbidity assay,[2],80%
"Cpl-1: parental endolysin derived from the streptococcal Cp-1 phage (protein, UniProt P15057 1-339, looked up) Lysozyme: MVKKNDLFVDVSSHNGYDITGILEQMGTTNTIIKISESTTYLNPCLSAQVEQSNPIGFYHFARFGGDVAEAEREAQFFLDNVPMQVKYLVLDYEDDPSGDAQANTNACLRFMQMIADAGYKPIYYSYKPFTHDNVDYQQILAQFPNSLWIAGYGLNDGTANFEYFPSMDGIRWWQYSSNPFDKNIVLLDDEEDDKPKTAGTWKQDSKGWWFRRNNGSFPYNKWEKIGGVWYYFDSKGYCLTSEWLKDNEKWYYLKDNGAMATGWVLVGSEWYYMDDSGAMVTGWVKYKNNWYYMTNERGNMVSNEFIKSGKGWYFMNTNGELADNPSFTKEPDGLITVA",log reduction,"[3]; 0.5 μg/ml, 5 min",< 1 log
same,concentration at which the bacteria culture was sterilized,"[3]; within 5 min, tested 0.5 to 50 μg/ml",50 µg/mL
same,time within which the mice had died,[4]; 20 μg single i.p. dose 1 h after infection,≤ 5 days
same,mice rescued (survival),"[4]; 80 μg single i.p. dose 1 h after infection, 10 days",20%
same,log reduction of tested pneumococcal strains,[5],~2 logs
"ClyX-3: the full-length Cpl-1 with an additional C′ terminal PlyC CHAP; Seq. ID No. 21 (protein, Bacteriophage, the full-length Cpl-1 with an additional C′ terminal PlyC CHAP; ID No. 21) MVKKNDLFVDVSSHNGYDITGILEQMGTTNTIIKISESTTYLNPCLSAQVEQSNPIGFYHFARFGGDVAEAEREAQFFLDNVPMQVKYLVLDYEDDPSGDAQANTNACLRFMQMIADAGYKPIYYSYKPFTHDNVDYQQILAQFPNSLWIAGYGLNDGTANFEYFPSMDGIRWWQYSSNPFDKNIVLLDDEEDDKPKTAGTWKQDSKGWWFRRNNGSFPYNKWEKIGGVWYYFDSKGYCLTSEWLKDNEKWYYLKDNGAMATGWVLVGSEWYYMDDSGAMVTGWVKYKNNWYYMTNERGNMVSNEFIKSGKGWYFMNTNGELADNPSFTKEPDGLITVAGSDRVAANLANAQAQVGKYIGDGQCYAWVGWWSARVCGYSISYSTGDPMLPLIGDGMNAHSIHLGWDWSIANTGIVNYPVGTVGRKEDLRVGAIWCATAFSGAPFYTGQYGHTGIIESWSDTTVTVLEQNILGSPVIRSTYDLNTFLSTLTGLITFK",activity by MIC compared with parental endolysin and ClyX-1,[1],better than parental endolysins
same,log reduction of tested pneumococcal strains,[5],~4 logs
